According to publication PMC6994067:

What was measured:
Test in all cases: NMR
Conditions in all cases: 25 °C, not stated (10 mM citrate-phosphate buffer; no added salt mentioned), folded, free protein, 1 mM
Asp33 = Asp33 (UniProt position 54, NVPPADKYKTF)
Glu103 = Glu103 (UniProt position 124, IAGTPEVHAVK)
Glu85 = Glu85 (UniProt position 106, PEDKYEAFVLH)
Glu39 = Glu39 (UniProt position 60, KYKTFEAAFTV)
His90 = His90 (UniProt position 111, EAFVLHFSEAL)
Glu7 = Glu7 (UniProt position 28, GKATTEEQKLI)
Asp76 = Asp76 (UniProt position 97, AYNAADHAAPE)
His77 = His77 (UniProt position 98, YNAADHAAPED)
His105 = His105 (UniProt position 126, GTPEVHAVKPG)
Glu8 = Glu8 (UniProt position 29, KATTEEQKLIE)
Asp14 = Asp14 (UniProt position 35, QKLIEDVNASF)
Glu93 = Glu93 (UniProt position 114, VLHFSEALRII)
Glu13 = Glu13 (UniProt position 34, EQKLIEDVNAS)
Glu81 = Glu81 (UniProt position 102, DHAAPEDKYEA)
Asp52 = Asp52 (UniProt position 73, KRNLADAVSKA)
Asp82 = Asp82 (UniProt position 103, HAAPEDKYEAF)
Glu66 = Glu66 (UniProt position 87, VPKLDEVYNAA)
Asp65 = Asp65 (UniProt position 86, LVPKLDEVYNA)

Pollen allergen Phl p 6 (Phleum pratense (timothy grass))
pKa (Asp33): 3.38 | pKa (Glu103): 3.65 | pKa (Glu85): 4.59 | pKa (Glu39): 4.84 | pKa (His90): 7.3 | pKa (Glu7): 4.25 | pKa (Asp76): 3.50 | pKa (His77): 7.4 | pKa (His105): 6.5 | pKa (Glu8): 3.19 | pKa (Asp14): 3.50 | pKa (Glu93): 4.21 | pKa (Glu13): 3.80 | pKa (Glu81): 3.52 | pKa (Asp52): 2.4 | pKa (Asp82): 3.06 | pKa (Glu66): 4.06 | pKa (Asp65): 4.80
